Data published in US20130150287A1.

Molecular target: integrin overexpressed on cancer cells
Assay: cell-based or functional assay

B1: RGD peptide (…) (peptide)
peptide: CDCRGDCFC
Question: Which reduction of cellular uptake of the recombinant protein particle by B16F10 cells after preincubation with 100-fold molar excess of RGD peptide does the source give for B1 here?
Answer: Its reduction of cellular uptake of the recombinant protein particle by B16F10 cells after preincubation with 100-fold molar excess of RGD peptide is 40%.

Question: And the reduction of cellular uptake of the recombinant protein particle by B16F10 cells after preincubation with 200-fold molar excess of RGD peptide?
Answer: Its reduction of cellular uptake of the recombinant protein particle by B16F10 cells after preincubation with 200-fold molar excess of RGD peptide is 95%.

Question: And the reduction of cellular uptake of the recombinant protein particle by B16F10 cells after preincubation with 400-fold molar excess of RGD peptide?
Answer: The reduction of cellular uptake of the recombinant protein particle by B16F10 cells after preincubation with 400-fold molar excess of RGD peptide was 95%.
